# The nanobody polyreactivity screen of Harvey et al. (2022)
# Assay: yeast display, Sf9 membrane polyspecificity reagent, FACS + sequencing; frameworks hold sequencing errors
# Summary of the method: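 Sorting gates, low and high (top ~1%), were placed on anti-HA fluorescence to track expression and on streptavidin fluorescence to track reagent binding. A clone's polyreactivity label is taken from the gate it came out of. The reagent was 10% biotinylated, detergent-solubilized Sf9 membrane, applied for 1 hour at 4 °C to galactose-induced yeast display cells.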
row,Sequence,polyreactivity (PSR sort gate)
1,QVQLVESGGGLVQAGGSLRLSCAASGIIFYLYAMGWYRQAPGKERELVAAISRRGGSTYYADSVKGRFTISRDNAKNTVYLQMNSLKPEDTAVYYCAATIGTFGYGYWGQGTQVTVSS,high polyreactivity
2,QVQLVESGGGLVQAGGSLRLSCAASGRISQTNAMGWYRQAPGKERELVAAISWRGGSTYYADSVKGRFTISRDNAKNTVYLQMNSLKPEDTAVYYCAVRGKYDRHYYWGQGTQVTVSS,high polyreactivity
3,QVQLQGSGGGLVQAGGSLRLSCAASGNIFDADIMAWYRQAPGKESELVASITDGGSTNYADSVKGRFTISRDNAKNTVYLQMNSLKQEDTAVYYCADIAYPDIPTYFDYDSDCFYWSQGTQVTVSS,high polyreactivity
4,QVQLVESGGGLVQAGGSLRLSCAASGSIFYYYAMGWYRQAPGKERELVAAITRSVSRTYYADSVKGRFTISRDNAKNTVYLQMNYLKPEVTAVYYCNVVGSSETSTVYYCGQGTQVTVSS,high polyreactivity
5,QVQLVESGGGLVQAGGSLRLSCAASGSIFAVYAMGWYRQAPGKERELVAVITRSGGSTYYADSVKGRFTISRDNAKNTVYLQMISLKPEDTAVYYCAARTGYGYTRYEYWGQGTQVTVSS,high polyreactivity
6,QVQLVESGGGLVQAGGSLRLSCAASGFTFYFYAKGWYTQSPGKERELVASISSSGGSTYADSVKGPFTISRDNAKNTVYLQMNSLKPEDTAVYYCAATEIFRFRYVAVGYDYWGQGTQVTVSS,low polyreactivity
7,QVQLVESGGGLVQAGGSLRLSCAASGSIFYYYAMGWDRQAPGKERELVAGITGSGGRTYYADSVKGRFTISRDNAKNTVYLQMNSLKPEDTAVYYCAATRRDSTGSLYYYWGQGTQVTVSS,high polyreactivity
8,QVQLVESGGGLVQAGGSLRLSCAASGSIFARNAMGWYRQAPGTERELVASITWSGASTYYADSVKGRFTMSRDNATNTVSLQLNSLKPDDTAVYYCAATAQKLSLDYSSYEYWGQGTQVTVSS,low polyreactivity
9,QDQLVESGGGLVQAGGSLRLSCAASGSSFDINAMGGYRQAPGKERELVAAISWIGGSTYYADSVKGRFTISRDNAKNTVYLKMNSLKPEDTAVYYCAKKELRQYDMEYWGQGTQVTVSS,low polyreactivity
10,QVQLVESGGGLVQAGGSLRLSCAASGSTFQRYVMGWYRPAPGKERELVAAITRTGASTYYADSVKGRFTISRDYAKNTVDLQMNSRKPEDTAGYYCAARYPLGSYTYDFWGQGTQVTVSS,high polyreactivity
11,QVQLVESGGGLVQAGGSLRLSCAASGSIFSRNTMGWYRQAPGKERELVAGISSSGSRTYYADSVKGRFTISRDNAKYTVYLQMNSLKPEDTAVYYCAAEHQRSRGRRYYIGYDYWGQGTQVTVSS,low polyreactivity
12,QDQLVESGGGLVQAGGSLRLSCAASGFIIQCNAMGWYRQAPGKERELVAAISSSVSTYYADSVKGRFTISRDNAKNTVYLQMNSLKPEDTAVYYCNAGFPLSLWLGDYWGQGTQVTVSS,low polyreactivity
13,QVQLVESGGGLVQAGGSLRLSCAASGSTFQIYTMGWYRQAPGKERELVAAITNGGGSTYYADSVKGRFTISRDNAKNTVYLQMNSLKPEDTAVYYCAAEQRYPLIILYDYWGQGTHVTVSS,low polyreactivity
14,QVQLVESGGGLVQAGGSLRLSCAASGRIFYRYSMGWYRQAPGKERELVAGISSGGRTNYADSVKGRFTISRDNAKNTVYLQMNSLKPEDTAVYYCNKARSRWSDARSSFGYDYWGQGTQVTVSS,low polyreactivity
15,QVQLVESGGGLVQAGGSLRLSCAASGIIFSWNTMGWYRQAPGKERELVAAISSSGGSTYYADSVKGRFTISRDNAKNTVYLQMNSLKPEDTAVYYCAADVYHWIHEYDYWGQGTQVTVSS,low polyreactivity
16,QVQLVESGGGLVQAGGSLRLSCAASGFTFEKNAMGWYGQAPGKERELVAAISRGGSTYADSVKGRFTISRDNAKTTVDLQMNSLKPEDTAVYYCAADTVYIFSSAINGEFGYWGQGTQVTVSS,low polyreactivity
17,LVQLLESGGGLVQAGGSLRLSCAASGRIFTGYALGWDRQAPGKDRELVASITWRGASTYYADSVKGRFTISRDNAKTTVFLQKNCLNPEDTAVDYCNVGASARKAYEYWGQGTQVTVSS,high polyreactivity
18,QVQLVESGGGLVQAGGSLRLSCAASGSTFIYYAMGWYRQAPGKERELVAVITGNGGRTYYADSVKGRFTISRDNAKNTVYLQMNSLKPEDTAVYYCAALYDGIYDSWGQGTQVTVSS,high polyreactivity
19,QVQLVESGGGLVQAGGSLSLSCAASGRIFPTYTMGWYRQAPGKERELVAAINRGGGSTYYADSVKGRFTISRDIAMNTVYLQMYSLKAEDTAVYYCNARTYYRSYGYDYCGQGTQVTVSS,low polyreactivity
20,QVQLVESGGGLVQAGGSLRLSCAASGSTFYGYAMGWYRQAPGKERELVAVINYSGGTTSYADSVKGRFTISRDNAKNTVYLQMNSLKPEDTAVYYCAARRRWAILRYRGNYDYWGQGTQVTVSS,high polyreactivity
21,QVQLVESAAGLVQAGGRLRLSCAASGYTFSNYAMGWSRQAPGKERELVAAISRSGGSTYYADSVKGRFTISRDNAKNTVYLQMNSLNPVDTAVYYCAASRSGTYDWGLGTQVTVSS,high polyreactivity
22,QVQLVESGGGLVQAGGSLRLSCAASGRIFVGYAMGWYRQAPGKERELVAAISARGGSTYYADSVKGRFTISRDNAKNTVYLQMNSLKPEDTAVYYCAADEASSRGYYDYDYWGQGTQVTVSS,low polyreactivity

row,Sequence,polyreactivity (PSR sort gate)
1,QVQLVESGGGLVQAGGSLRLSCAASGLIFYKYAKGWYRQAPGKERELVAAISRGDNTYYADSVKGRFTISRDNAKNTVYLQMNSLKPEDTAVYYCAAYRWIYQSQYQGYWLDYWGQGTQVTVSS,high polyreactivity
2,QVQLVESGGGLVQAGGSLRLSCAASGIIFRDYDMGWYRQAPGKERELVAAITWDGGSTYYADSVKGRFTISRDNAKNTVYLQMNSLTPEDTAVYYCAADSRYHYYVGYYYWGQGTQVTVSS,high polyreactivity
3,QLQHVESGGGLVQAGGSLRLSCAASGRTFWYYAMGWYRQAPGTESELVAAISRGGGSTYYADSVKGSFTISRDTAKNTVYLQMNILKPEDTAVYYCAVASDYRGYYYWGQGTQVTVSS,high polyreactivity
4,QVQLVESGGGLVQAGGSLRLSCAASGLTFRQYAMGWYRQAPGKERELVAAIDTGASTNYADSVKGRFTISRDNAKNTVYLQMNSLKPEDTAGYYCNAELWYGPDELTGDYWGQGTQVTVSS,low polyreactivity
5,QVQLLESGGGLVQAGGSLRLSCAASGSIFYRYAMGWYRQAPGKEREFVAAISGSGSSTYYADSVKGRFTISRDNAKNTVYLQMNSLKPEDTAVYYCAARWRYYGSFDYWGQGTQVTVSS,high polyreactivity
6,QVQLVESGGGLVQAGGSLRLSCAASGRTFNYYVMGWYRRAPGKERELVAAITWRGGRTYADSVKGRFTISRDNAKNTVYLQMNSLKPEDTAVYYCAAYTTKGYGYWGQGTQVTVSS,high polyreactivity
7,QVQLVESGRGLVQAGGSLRLSCAASGIIFRLNAMGWYRQAPGKERELVAAILRRGGSTYYADSVKGRFTISRDNAKNTVYFQMNSLKPEDTAVDYCAKDPHGSDFGYWGQGTQVTVSS,low polyreactivity
8,QVQLVESGGGLVQAGGSLRLSCAASGHTFSISAMGWYRQAPGKERELVAAISLSGGSTDYADSVKGRFTISRDNAKNTVYLQMNSLKPEDTAVYYCAADVFTARRSYDYGGQGTQVTVSS,low polyreactivity
9,QVQLVESGGGLVQAGGSLRLSCAASGIIFPRYAMGWYRQAPGKEREVVAAITSGGSTYYADSVKGRFTISRDNAKNTVYLQINSLKPEDTAVSYCAAVRYSWDIYREYYYWGQGTQVTVSS,high polyreactivity
10,QVQVEESGGGVVQAGGSLRLSCAAYGRIFFRNAMGWYRPAPGKERELVAVINTGGSTNYADSVKGRFTISRDNAKNTVYLQMNRLKAEDTAVYYCAVDRASRRTYNQYGYWGQGTQVSVSS,high polyreactivity
11,QVQLVESVGGLVQAGGSLRLSCAASVNIFITNAMGWYRQAPGKERELVADISFSGGSTYYADSVKGRFTISRDTAKNTVYLQMNSLIPEDTAVYYCAARALASVSAHKYDYWGQGTQVTVSS,low polyreactivity
12,QVQLVESGGGFFQAGGSLRLSCAASGNTFGINAMRWYREAPGKERELVAAISWSGDRTYYADSVKGRFTISRDNAKNTVYLQMNSLKPEDTAVYYCAAGKYRFTYYALEYDYWGQGTQVTVSS,low polyreactivity
13,QVQLVESGGGLVQAGGSLRLSCAASGFTFRDYAMGWYRQAPGKEREFIADITFSGDNTRYADSVKGRFTISRDNAKNTVYLQMNSLKREDTAVYYCNADYLVSWLQFDYWGQGTQVTVSS,low polyreactivity
14,QVQLVESGGGLVQAGGSLRLSCAASGFTFGRYAMGWYRQAPGKERELVAAISRGGSSTYYADSVKGRFTISRDNAKNTVYLQMNSLKPEDNAVYYCNKVIIWARFDYWGQGTQVTVSS,high polyreactivity
15,QVQLVESGGGLVQAGGSLRLSCAASGYYAMGWYRQAPGKERELVAAITWSGGTTYYADSVKGRFTISRDNAKNTVYLQMNSLKPEDTAVYYCNADFVRYTRHKKYYYWGQGTQVTVSS,low polyreactivity
16,QVQLVESGGGLVQAGGSLRLSCAASGRIFYAYAMGWYRQAPGKERELVAAISSGGSTKYADSVKGRFTISRDNAKNTVYLQMNSLKPEDTAVYYCNADATAQSFGTLFDYWGQGTQVTVSS,low polyreactivity
17,QVQLVESGGGLVQAGRSLRLSCAPSGLTISSNAMGGYRQAPGKERELVAGISRRGGRTYYADSVKGRFTISRDTAKHTVYLQMNSLKPEDTAVYYCAADRVGNSYDYWGQGTQGTVSS,high polyreactivity
18,QVQLVESGGGLVQAGGSLRLSCAASGSIFTWYAMGWYRQAPGKERELVAAISEDGGSTYYADSVKGRFTISRDNAKNTVYLQMNSLKPEDTAVYYCATPVASVTGYDYWGQGTQVTVSS,low polyreactivity
19,QVQLVESGGGLVQAGGSLRLSCAASGFIFYAYAMGWYRQAPGKERELVAAITRSGGSTYYADSVKGRFTISRDNAKNTVYLQMNSLKPEDTAVYYCAARQRTKLGYWGQGTQVTVSS,high polyreactivity
20,QVQLVESGGGLVQAGGSLRLSCAASGRIFYSYAMGGYRQAPGKERELVAAISSAGSTYYADSVKGSFTISRDNAKNTVYLQMNSLKPEDTAVYYSAKGIWPYHGYRLQRVYDSWGQGTQVTVSS,high polyreactivity
21,QVQIVESGGGLVQAGGSLRLSCAASGFNYRGYAMGWYRQAPGKERELVASIRWNGGSTYYADSVKGRFTISRDNAKNTVYLLMNSLKPEDTAVYYCAAAYRYYGVAYGYDWGQGTQVTVSS,high polyreactivity
